{"source": "paper PMC8865534", "target": "NHE1-ECL1-rIgG, the first extracellular loop of the ALV-J receptor NHE1 fused to rabbit IgG Fc (expressed in DF-1 cells) (chicken)"}
{"substance": "Env protein (envelope glycoprotein, gp85-gp37) of ALV-J strain TBC-J6, wild type (natural protein)", "values": [{"measurement": "reduction of ALV-J infection (p27 mRNA level by qPCR) of DF-1 cells transfected with 250 ng pCAGGS-env(wt) for 2 days; the receptor is the endogenous NHE1 of DF-1 cells", "result": 91, "unit": "%"}]}
